The text below walks through data of patent US20110105397A1, “METHOD FOR TREATING HEART FAILURE WITH STRESSCOPIN-LIKE PEPTIDES” (priority 2009, published 2011).

T1: human corticotrophin releasing hormone receptor type 2 (CRHR2) (human, UniProt Q13324 1-411)
T1 sequence (looked up): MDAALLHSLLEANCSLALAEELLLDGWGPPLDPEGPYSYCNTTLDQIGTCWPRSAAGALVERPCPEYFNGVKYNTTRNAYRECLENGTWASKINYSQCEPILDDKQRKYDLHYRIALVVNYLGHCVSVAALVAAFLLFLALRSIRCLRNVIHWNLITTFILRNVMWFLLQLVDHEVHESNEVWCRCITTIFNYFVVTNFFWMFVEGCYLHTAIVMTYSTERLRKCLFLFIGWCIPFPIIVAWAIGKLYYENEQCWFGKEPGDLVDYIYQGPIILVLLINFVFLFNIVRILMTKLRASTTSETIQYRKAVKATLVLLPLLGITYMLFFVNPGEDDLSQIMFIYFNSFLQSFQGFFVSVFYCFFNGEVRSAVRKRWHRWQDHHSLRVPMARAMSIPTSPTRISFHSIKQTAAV

B1: Cys-variant of stresscopin peptide with N-Ethylsuccinimide (NES) reactive group SEQ ID NO: 52 (peptide)
peptide: TKFTLSLDVPTNIMNLLFC(Succinimide(1-Et,3-yl))IAKAKNLRAQAAANAHLMAQI-NH2
modifications: N-terminus assumed
SMILES: CC[C@H](C)[C@H](NC(=O)[C@H](CCC(N)=O)NC(=O)[C@H](C)NC(=O)[C@H](CCSC)NC(=O)[C@H](CC(C)C)NC(=O)[C@H](Cc1c[nH]cn1)NC(=O)[C@H](C)NC(=O)[C@H](CC(N)=O)NC(=O)[C@H](C)NC(=O)[C@H](C)NC(=O)[C@H](C)NC(=O)[C@H](CCC(N)=O)NC(=O)[C@H](C)NC(=O)[C@H](CCCNC(=N)N)NC(=O)[C@H](CC(C)C)NC(=O)[C@H](CC(N)=O)NC(=O)[C@H](CCCCN)NC(=O)[C@H](C)NC(=O)[C@H](CCCCN)NC(=O)[C@H](C)NC(=O)[C@@H](NC(=O)[C@H](CSC1CC(=O)N(CC)C1=O)NC(=O)[C@H](Cc1ccccc1)NC(=O)[C@H](CC(C)C)NC(=O)[C@H](CC(C)C)NC(=O)[C@H](CC(N)=O)NC(=O)[C@H](CCSC)NC(=O)[C@@H](NC(=O)[C@H](CC(N)=O)NC(=O)[C@@H](NC(=O)[C@@H]1CCCN1C(=O)[C@@H](NC(=O)[C@H](CC(=O)O)NC(=O)[C@H](CC(C)C)NC(=O)[C@H](CO)NC(=O)[C@H](CC(C)C)NC(=O)[C@@H](NC(=O)[C@H](Cc1ccccc1)NC(=O)[C@H](CCCCN)NC(=O)[C@@H](N)[C@@H](C)O)[C@@H](C)O)C(C)C)[C@@H](C)O)[C@@H](C)CC)[C@@H](C)CC)C(N)=O
B2: Cys-variant of stresscopin peptide with N-Ethylsuccinimide (NES) reactive group SEQ ID NO: 54 (peptide)
peptide: TKFTLSLDVPTNIMNC(Succinimide(1-Et,3-yl))LFNIAKAKNLRAQAAANAHLMAQI-NH2
modifications: N-terminus assumed
SMILES: CC[C@H](C)[C@H](NC(=O)[C@H](CCC(N)=O)NC(=O)[C@H](C)NC(=O)[C@H](CCSC)NC(=O)[C@H](CC(C)C)NC(=O)[C@H](Cc1c[nH]cn1)NC(=O)[C@H](C)NC(=O)[C@H](CC(N)=O)NC(=O)[C@H](C)NC(=O)[C@H](C)NC(=O)[C@H](C)NC(=O)[C@H](CCC(N)=O)NC(=O)[C@H](C)NC(=O)[C@H](CCCNC(=N)N)NC(=O)[C@H](CC(C)C)NC(=O)[C@H](CC(N)=O)NC(=O)[C@H](CCCCN)NC(=O)[C@H](C)NC(=O)[C@H](CCCCN)NC(=O)[C@H](C)NC(=O)[C@@H](NC(=O)[C@H](CC(N)=O)NC(=O)[C@H](Cc1ccccc1)NC(=O)[C@H](CC(C)C)NC(=O)[C@H](CSC1CC(=O)N(CC)C1=O)NC(=O)[C@H](CC(N)=O)NC(=O)[C@H](CCSC)NC(=O)[C@@H](NC(=O)[C@H](CC(N)=O)NC(=O)[C@@H](NC(=O)[C@@H]1CCCN1C(=O)[C@@H](NC(=O)[C@H](CC(=O)O)NC(=O)[C@H](CC(C)C)NC(=O)[C@H](CO)NC(=O)[C@H](CC(C)C)NC(=O)[C@@H](NC(=O)[C@H](Cc1ccccc1)NC(=O)[C@H](CCCCN)NC(=O)[C@@H](N)[C@@H](C)O)[C@@H](C)O)C(C)C)[C@@H](C)O)[C@@H](C)CC)[C@@H](C)CC)C(N)=O
B3: Cys-variant of stresscopin peptide with N-Ethylsuccinimide (NES) reactive group SEQ ID NO: 53 (peptide)
peptide: TKFTLSLDVPTNIMNLC(Succinimide(1-Et,3-yl))FNIAKAKNLRAQAAANAHLMAQI-NH2
modifications: N-terminus assumed
SMILES: CC[C@H](C)[C@H](NC(=O)[C@H](CCC(N)=O)NC(=O)[C@H](C)NC(=O)[C@H](CCSC)NC(=O)[C@H](CC(C)C)NC(=O)[C@H](Cc1c[nH]cn1)NC(=O)[C@H](C)NC(=O)[C@H](CC(N)=O)NC(=O)[C@H](C)NC(=O)[C@H](C)NC(=O)[C@H](C)NC(=O)[C@H](CCC(N)=O)NC(=O)[C@H](C)NC(=O)[C@H](CCCNC(=N)N)NC(=O)[C@H](CC(C)C)NC(=O)[C@H](CC(N)=O)NC(=O)[C@H](CCCCN)NC(=O)[C@H](C)NC(=O)[C@H](CCCCN)NC(=O)[C@H](C)NC(=O)[C@@H](NC(=O)[C@H](CC(N)=O)NC(=O)[C@H](Cc1ccccc1)NC(=O)[C@H](CSC1CC(=O)N(CC)C1=O)NC(=O)[C@H](CC(C)C)NC(=O)[C@H](CC(N)=O)NC(=O)[C@H](CCSC)NC(=O)[C@@H](NC(=O)[C@H](CC(N)=O)NC(=O)[C@@H](NC(=O)[C@@H]1CCCN1C(=O)[C@@H](NC(=O)[C@H](CC(=O)O)NC(=O)[C@H](CC(C)C)NC(=O)[C@H](CO)NC(=O)[C@H](CC(C)C)NC(=O)[C@@H](NC(=O)[C@H](Cc1ccccc1)NC(=O)[C@H](CCCCN)NC(=O)[C@@H](N)[C@@H](C)O)[C@@H](C)O)C(C)C)[C@@H](C)O)[C@@H](C)CC)[C@@H](C)CC)C(N)=O

Where no end group is shown, it is not given here. The star is where a group is joined. Succinimide(1-Et,3-yl) = CCN1C(=O)CC(*)C1=O

This assay addresses T1, human corticotrophin releasing hormone …. Put plainly: cell-based or functional assay.
Consider TKFTLCLDVPTNIMNLLFNIAKAKNLRAQAAANAHLMAQI-NH2 [Cys-variant stresscopin-like peptide SEQ ID NO: 7], for which the “Log DR” value is 2.08 log10 and the pA50 was 7.6 -log10(M).
For the molecule CKFTLSLDVPTNIMNLLFNIAKAKNLRAQAAANAHLMAQI-NH2 [Cys-variant stresscopin-like peptide SEQ ID NO: 2], the “Log DR” value is 0.72 log10 and the pA50 was 8.97 -log10(M).
Taken in the same sequence, the figures for TKFTLSCDVPTNIMNLLFNIAKAKNLRAQAAANAHLMAQI-NH2 [Cys-variant stresscopin-like peptide SEQ ID NO: 8] were 2.86 log10 and ~6.82 -log10(M).
The corresponding values for TKFTCSLDVPTNIMNLLFNIAKAKNLRAQAAANAHLMAQI-NH2 [Cys-variant stresscopin-like peptide SEQ ID NO: 6] are 0.61 log10 and 9.07 -log10(M).
For the molecule B1, the “Log DR” value came to 0.05 log10 and the pA50 was 9.42 -log10(M).
The corresponding values for TKCTLSLDVPTNIMNLLFNIAKAKNLRAQAAANAHLMAQI-NH2 [Cys-variant stresscopin-like peptide SEQ ID NO: 4] are 1.03 log10 and 8.65 -log10(M).
Regarding CKFTLSLDVPTNIMNLLFNIAKAKNLRAQAAANAHLMAQI (NES-PEG (about 20 kDa) on Cys 1; C-terminal amide (-NH2)) [Pegylated Cys-variant stresscopin-like peptide with NES linker and PEG about 20 kDa SEQ ID NO: 55], the “Log DR” value was roughly 1.61 log10 and the pA50 is ~7.93 -log10(M).
TKFCLSLDVPTNIMNLLFNIAKAKNLRAQAAANAHLMAQI (NES-PEG (about 20 kDa) on Cys 4; C-terminal amide (-NH2)) [Pegylated Cys-variant stresscopin-like peptide with NES linker and PEG about 20 kDa SEQ ID NO: 58]: the “Log DR” value was roughly 2.4 log10 and the pA50 is ~7.14 -log10(M).
Taken in the same sequence, the figures for TKFTCSLDVPTNIMNLLFNIAKAKNLRAQAAANAHLMAQI (NES-PEG (about 20 kDa) on Cys 5; C-terminal amide (-NH2)) [Pegylated Cys-variant stresscopin-like peptide with NES linker and PEG about 20 kDa SEQ ID NO: 59] were roughly 2.32 log10 and ~7.22 -log10(M).
Turning to TKCTLSLDVPTNIMNLLFNIAKAKNLRAQAAANAHLMAQI (NES-PEG (about 20 kDa) on Cys 3; C-terminal amide (-NH2)) [Pegylated Cys-variant stresscopin-like peptide with NES linker and PEG about 20 kDa SEQ ID NO: 57], the “Log DR” value is roughly 1.9 log10 and the pA50 is ~7.64 -log10(M).
As to TCFTLSLDVPTNIMNLLFNIAKAKNLRAQAAANAHLMAQI (NES-PEG (about 20 kDa) on Cys 2; C-terminal amide (-NH2)) [Pegylated Cys-variant stresscopin-like peptide with NES linker and PEG about 20 kDa SEQ ID NO: 56], the “Log DR” value is roughly 2.34 log10 and the pA50 is ~7.2 -log10(M).
In the case of TKFTLCLDVPTNIMNLLFNIAKAKNLRAQAAANAHLMAQI (NES-PEG (about 20 kDa) on Cys 6; C-terminal amide (-NH2)) [Pegylated Cys-variant stresscopin-like peptide with NES linker and PEG about 20 kDa SEQ ID NO: 60], the “Log DR” value was greater than 3.22 log10 and the pA50 was ~6.32 -log10(M).
B2: the “Log DR” value was -0.08 log10 and the pA50 is 9.55 -log10(M).
Taken in the same sequence, the figures for B3 were roughly 2.22 log10 and ~7.25 -log10(M).
As to TKFCLSLDVPTNIMNLLFNIAKAKNLRAQAAANAHLMAQI-NH2 [Cys-variant stresscopin-like peptide SEQ ID NO: 5], the “Log DR” value was 0.76 log10 and the pA50 was 8.93 -log10(M).
As for TCFTLSLDVPTNIMNLLFNIAKAKNLRAQAAANAHLMAQI-NH2 [Cys-variant stresscopin-like peptide SEQ ID NO: 3], the “Log DR” value is 0.72 log10 and the pA50 was 8.97 -log10(M).
